This passage reports binding result and Kd results from patent US20260209348A1 (University of California, published 2026).

B1: h6E6-058 (antibody, human IgG1, V domains shown)
VH: EVQLVESGGGLVKPGGSLRLSCAASGFTFSVYGLSWVRQAPGKGLEWVSTISSGGGYTQYAPSVKGRFTISRDNAKNSLYLQMNSLRAEDTAVYYCARHPRDFSYAFDYWGQGTTVTVSS
VL: EIVMTQSPATLSVSPGERATLSCKASQDVGHYLAWYQQKPGQAPRLLIYWASTRATGIPARFSGSGSGTEFTLTISSLQSEDFAVYYCQQYNIYPWTFGQGTKVEIK
notes: human IgG1; also called clone 58
B2: h6E6-063 (antibody, human IgG1, V domains shown)
VH: B1 VH with V31A, L34T, Q59Y, P62A, F107I
VL: B1 VL with K24R
notes: human IgG1; also called clone 63
B3: h6E6-070 (antibody, human IgG1, V domains shown)
VH: B1 VH with V31Q, L34H, Q59H, P62H, F107N
VL: B1 VL with K24R
notes: human IgG1; Alexa647 conjugate in flow cytometry; also called clone 70
B4: h6E6-007 (antibody, human IgG1, V domains shown)
VH: B1 VH with V31G, Q59H, F107Q
VL: B1 VL with L33V
notes: human IgG1; also called clone 7
B5: h6E6-029 (antibody, human IgG1, V domains shown)
VH: B1 VH with V31H, L34V, Q59H, P62Q, F107Q
VL: B1 VL with L33V, A55H
notes: human IgG1; also called clone 29
B6: h6E6-072 (antibody, human IgG1, V domains shown)
VH: B1 VH with V31Q, L34H, Q59H, P62D, F107Q
VL: B1 VL with A55H
notes: human IgG1; also called clone 72
B7: h6E6-057 (antibody, human IgG1, V domains shown)
VH: B1 VH with V31H, L34V, Q59H, A61V, P62A, F107L
VL: B1 VL with L33V, T97A
notes: human IgG1; also called clone 57
B8: h6E6-107 (antibody, human IgG1, V domains shown)
VH: B1 VH with V31T, L34A, Q59H, F107L
VL: B1 VL with L33V
notes: human IgG1; also called clone 107
B9: h6E6-066 (antibody, human IgG1, V domains shown)
VH: B1 VH with V31A, L34S, Q59H, F107H
VL: B1 VL with L33V, A55H
notes: human IgG1; also called clone 66
B10: h6E6-055 (antibody, human IgG1, V domains shown)
VH: B1 VH with V31Q, L34H, Q59H, P62E, F107Q
VL: B1 VL
notes: human IgG1; also called clone 55
B11: h6E6-040 (antibody, human IgG1, V domains shown)
VH: B1 VH with V31S, L34H, Q59H, F107H
VL: B1 VL with K24R, L33V
notes: human IgG1; also called clone 40
B12: h6E6-056 (antibody, human IgG1, V domains shown)
VH: B1 VH with V31K, L34T, Q59H, F107Q
VL: B1 VL with K24R, L33V
notes: human IgG1; also called clone 56
B13: h6E6-068 (antibody, human IgG1, V domains shown)
VH: B1 VH with V31S, L34I, Q59H, P62H, F107L
VL: B1 VL
notes: human IgG1; also called clone 68
B14: h6E6-116 (antibody, human IgG1, V domains shown)
VH: B1 VH with V31T, L34V, Q59H, P62G, F107L
VL: B1 VL with K24R
notes: human IgG1; Alexa647 conjugate in flow cytometry
B15: h6E6-102 (antibody, human IgG1, V domains shown)
VH: B1 VH with V31K, Q59H, A61V, P62E, F107S
VL: B1 VL with L33V
notes: human IgG1; also called clone 102
B16: h6E6-077 (antibody, human IgG1, V domains shown)
VH: B1 VH with V31H, L34T, Q59H, F107I
VL: B1 VL with L33V
notes: human IgG1; also called clone 77
B17: h6E6-116 anti-human ROR2 chimeric antigen receptor (other, not shown: small tags and cut ends)
chain: EVQLVESGGGLVKPGGSLRLSCAASGFTFSTYGVSWVRQAPGKGLEWVSTISSGGGYTHYAGSVKGRFTISRDNAKNSLYLQMNSLRAEDTAVYYCARHPRDFSYALDYWGQGTTVTVSSEIVMTQSPATLSVSPGERATLSCRASQDVGHYLAWYQQKPGQAPRLLIYWASTRATGIPARFSGSGSGTEFTLTISSLQSEDFAVYYCQQYNIYPWTFGQGTKVEIK
notes: Expressed on transfected Jurkat cells

Residue numbers refer to the chain shown, from its start.

T4 sequence (Q01974 34-403 H349R limits assumed): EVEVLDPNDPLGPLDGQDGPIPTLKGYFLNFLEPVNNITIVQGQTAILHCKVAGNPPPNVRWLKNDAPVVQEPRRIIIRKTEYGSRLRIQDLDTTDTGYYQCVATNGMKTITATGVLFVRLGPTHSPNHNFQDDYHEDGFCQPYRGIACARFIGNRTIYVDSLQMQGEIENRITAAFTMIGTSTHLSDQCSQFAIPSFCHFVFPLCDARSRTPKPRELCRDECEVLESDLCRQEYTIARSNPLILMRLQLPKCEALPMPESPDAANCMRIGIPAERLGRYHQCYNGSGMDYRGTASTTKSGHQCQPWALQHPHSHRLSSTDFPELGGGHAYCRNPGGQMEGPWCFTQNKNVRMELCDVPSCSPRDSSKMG
T1 sequence (Q01974 34-403 D354E limits assumed): as the sequence (Q01974 34-403 H349R limits assumed) above, with R316H, D321E counted along it
T5 sequence (Q01974 34-403 limits assumed): as the sequence (Q01974 34-403 H349R limits assumed) above, with R316H counted along it

One assay concerns the target T1, recombinant human ROR2 D354E (human, UniProt Q01974 34-403). Description: dot blot of arrayed recombinant proteins (key on the sheet).
On to B1, for which the binding result was “no binding”.

For the molecule B2, the binding result is given as “no binding”.

A further assay deals with T2, recombinant mouse ROR2 (extracellular portion) (mouse, UniProt Q9Z138 34-403).
T2 construct: also called mROR2
T2 sequence (Q9Z138 other isoform, or with tags, fused parts or gaps limits assumed): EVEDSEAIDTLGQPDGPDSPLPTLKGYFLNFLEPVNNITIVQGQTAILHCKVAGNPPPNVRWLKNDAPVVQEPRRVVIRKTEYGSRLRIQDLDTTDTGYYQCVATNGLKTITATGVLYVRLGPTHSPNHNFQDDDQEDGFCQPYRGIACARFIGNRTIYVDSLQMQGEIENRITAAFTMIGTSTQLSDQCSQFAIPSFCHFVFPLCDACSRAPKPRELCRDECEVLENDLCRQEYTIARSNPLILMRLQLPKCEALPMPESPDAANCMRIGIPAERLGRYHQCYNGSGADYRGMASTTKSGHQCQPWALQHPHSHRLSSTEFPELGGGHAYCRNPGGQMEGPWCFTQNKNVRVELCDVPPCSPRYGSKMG
The description is as above.
In the case of B1, the binding result is given as “no binding”.

Take B2: the binding result is reported as “no binding”.

With B3, the binding result is given as “no binding”.

A further assay deals with T3, recombinant ROR1 (Homo sapiens (Human), UniProt Q01973 30-406). Described as above.
T3 sequence (Q01973 30-406 limits assumed): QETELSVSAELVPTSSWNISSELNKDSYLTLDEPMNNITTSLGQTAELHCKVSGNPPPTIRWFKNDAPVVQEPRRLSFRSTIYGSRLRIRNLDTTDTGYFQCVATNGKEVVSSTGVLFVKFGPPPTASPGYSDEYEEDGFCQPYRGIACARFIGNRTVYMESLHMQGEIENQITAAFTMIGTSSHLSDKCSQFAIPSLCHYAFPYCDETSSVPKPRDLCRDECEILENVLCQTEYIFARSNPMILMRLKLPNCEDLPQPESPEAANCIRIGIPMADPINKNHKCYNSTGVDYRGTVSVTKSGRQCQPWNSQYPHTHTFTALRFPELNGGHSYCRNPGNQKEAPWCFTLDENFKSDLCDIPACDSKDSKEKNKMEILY
For B1, the binding result was “no binding”.

Take B2: the binding result is reported as “no binding”.

A further assay has as its target T4, recombinant human ROR2 H349R (human, UniProt Q01974 34-403).
T4 construct: Human residue replaced with the mouse residue
The assay is described as above.
For the molecule B1, the binding result was “no binding”.

Regarding B2, the binding result is reported as “no binding”.

The next assay concerns the target T5, human ROR2 (human, UniProt Q01974 34-403, limits assumed). Description: SPR. Summed up: (§1)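 Humanized monoclonal antibodies against human ROR2, made by transferring murine complementarity-determining regions into human acceptor frameworks with the constant region switched to human IgG1, were assessed by surface plasmon resonance. Their affinity for human ROR2 is expressed as the dissociation constant (Kd) in nM.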
(In general: In SPR one partner is held on a chip, and binding of the other changes the refractive index at the surface.)
One may read the Kd as the free concentration of one partner at which half of the binding sites on the other are occupied at equilibrium, for simple one-to-one binding. On to B4, for which the Kd amounted to 318 pM.

In turn, B5 came in with a Kd of 79 pM.

In turn, B6 came in with a Kd of 380 pM.

For B1, the Kd amounted to 187 pM.

For B7, the Kd is 463 pM.

B2 displayed a Kd of 475 pM.

Regarding B3, the Kd was 165 pM.

In turn, B8 displayed a Kd of 422 pM.

B9 had a Kd of 353 pM.

B10: the dissociation constant Kd was 261 pM.

B11 registered a Kd of 186 pM.

As for B12, the Kd was found to be 24 pM.

With B13, the Kd amounted to 362 pM.

For B14, binding was put at a Kd of 348 pM.

B15 registered a Kd of 319 pM.

Take B16: the Kd was 155 pM.

Another assay deals with T5, human ROR2. The assay can be described thus: SPR. The source holds these as a separate data set. Summed up: as §1
As to B4, the Kd came out at 318 pM.

B5 registered a Kd of 79 pM.

Consider B6, for which binding was characterised by a dissociation constant (Kd) of 380 pM.

For B1, the Kd came out at 187 pM.

Consider B7, for which the Kd worked out at 463 pM.

On to B2, for which the Kd is 475 pM.

With B3, the Kd is 165 pM.

Consider B8, for which the Kd was 422 pM.

On to B9, for which the Kd worked out at 353 pM.

Consider B10, for which binding was characterised by a dissociation constant (Kd) of 261 pM.

For the molecule B11, the Kd worked out at 186 pM.

For the molecule B12, the Kd came out at 24 pM.

Consider B13, for which the equilibrium dissociation constant (Kd) stood at 362 pM.

B14 had a Kd of 348 pM.

Molecule B15 had a Kd of 319 pM.

The molecule B16 returned a Kd of 155 pM.

The target in a further assay is T6, ROR1-Ig (human, UniProt Q01973 30-406).
T6 construct: extracellular domain; also called control ROR1-Ig; not shown: CH2-CH3 constant region domains of human IgG1 (same human IgG domains as ROR2-Ig)
T6 sequence (Q01973 30-406): as the sequence (Q01973 30-406 limits assumed) above
The assay can be described thus: flow cytometry, ROR1-Ig then anti-human IgG-PE, Jurkat cells transfected with the CAR. The procedure: All cells were assessed after 48 hours by flow cytometry for binding of recombinant human ROR2-Ig protein comprised of the ROR2 extracellular domain and the CH2-CH3 constant region domains of human IgG1. Cells were stained on ice for 20 minutes with 1 μg/ml of recombinant ROR2-Ig (upper panel) or 1 μg/ml of control ROR1-Ig (lower panel). washed, stained for an additional 20 minutes on ice with phycoerythrin (PE)-conjugated anti-human IgG1 antibody, washed and analyzed by flow cytometry. Shaded histograms depict the relative fluorescence intensity (x axis) of viable cells, as determined by light scatter characteristics, stained with either ROR2-Ig or ROR1-Ig compared to cells stained with the anti-human IgG1-PE antibody only (open histograms). […] Conversely, ROR1 CAR transfected cells bind only to ROR1-Ig.
On the technique in general: A flow cytometer gives signals particle by particle.
For B17, the binding result is “no binding (tested: 1 ug/ml)”.

For another assay, the target named is T1, recombinant human ROR2 D354E. Description: dot blot on nylon membrane, anti-human IgG-HRP.
For the molecule B4, the binding result is reported as “no binding”.

Consider B5, for which the binding result is “no binding”.

Regarding B6, the binding result was “no binding”.

Take B7: the binding result is given as “no binding”.

Turning to B3, the binding result is recorded as “no binding”.

For B8, the binding result is “no binding”.

On to B9, for which the binding result is “no binding”.

Regarding B10, the binding result is given as “no binding”.

As for B11, the binding result is reported as “no binding”.

B12: the binding result was “no binding”.

Turning to B13, the binding result is “no binding”.

Consider B14, for which the binding result is listed as “no binding”.

Regarding B15, the binding result is given as “no binding”.

As to B16, the binding result is listed as “no binding”.

In a further assay the target is T2, recombinant mouse ROR2 (extracellular …). The assay can be described thus: dot blot on nylon membrane, anti-human IgG-HRP.
For B4, the binding result is “no binding”.

With B5, the binding result is “no binding”.

B6: the binding result is recorded as “no binding”.

Consider B7, for which the binding result is reported as “no binding”.

Take B8: the binding result is “no binding”.

With B9, the binding result was “no binding”.

In the case of B10, the binding result is “no binding”.

In the case of B11, the binding result is recorded as “no binding”.

As for B12, the binding result is given as “no binding”.

Take B13: the binding result was “no binding”.

B14: the binding result is reported as “no binding”.

B15: the binding result is “no binding”.

Turning to B16, the binding result is recorded as “no binding”.

Another assay deals with T3, recombinant ROR1. Description: dot blot on nylon membrane, anti-human IgG-HRP.
As to B4, the binding result is “no binding”.

In the case of B5, the binding result was “no binding”.

As for B6, the binding result is reported as “no binding”.

Regarding B7, the binding result is reported as “no binding”.

As for B3, the binding result is “no binding”.

As to B8, the binding result is on record as “no binding”.

On to B9, for which the binding result is “no binding”.

Consider B10, for which the binding result is given as “no binding”.

For the molecule B11, the binding result is reported as “no binding”.

With B12, the binding result was “no binding”.

For B13, the binding result is “no binding”.

For the molecule B14, the binding result was “no binding”.

As for B15, the binding result is recorded as “no binding”.

As for B16, the binding result is listed as “no binding”.

A further assay has as its target T4, recombinant human ROR2 H349R. The assay can be described thus: dot blot on nylon membrane, anti-human IgG-HRP.
For the molecule B4, the binding result is listed as “no binding”.

As to B5, the binding result is recorded as “no binding”.

B6: the binding result was “no binding”.

With B7, the binding result is recorded as “no binding”.

Take B3: the binding result was “no binding”.

For the molecule B8, the binding result is “no binding”.

Regarding B9, the binding result was “no binding”.

As for B10, the binding result is on record as “no binding”.

Take B11: the binding result was “no binding”.

Consider B12, for which the binding result is given as “no binding”.

Consider B13, for which the binding result is “no binding”.

As for B14, the binding result is “no binding”.

For the molecule B15, the binding result was “no binding”.

As for B16, the binding result is recorded as “no binding”.
